The target of test [1] is 1:1 8D6 Fab/IgE-Fc complex. The experiment in a line: SPR; sandwich: about 100 RU of His-tagged IgE-Fc captured on an 8D6 Fab surface, then a second 8D6 Fab injected at 30 uL/min; HBS-P.
Test [2] concerns the target His-tagged IgE-Fc (human). The test is described as above.

For orientation: Kd means the concentration at which binding is half-saturated. The term koff denotes the rate constant with which the complex falls apart. Higher therefore signals fast dissociation. For orientation: kon means a measure of how fast the partners come together. A high value points to fast association. One may read the stoichiometry N as the number of molecules, sites or subunits per partner or assembly.

Chain of His-tagged IgE-Fc (human) (P01854 other isoform, or with tags, fused parts or gaps): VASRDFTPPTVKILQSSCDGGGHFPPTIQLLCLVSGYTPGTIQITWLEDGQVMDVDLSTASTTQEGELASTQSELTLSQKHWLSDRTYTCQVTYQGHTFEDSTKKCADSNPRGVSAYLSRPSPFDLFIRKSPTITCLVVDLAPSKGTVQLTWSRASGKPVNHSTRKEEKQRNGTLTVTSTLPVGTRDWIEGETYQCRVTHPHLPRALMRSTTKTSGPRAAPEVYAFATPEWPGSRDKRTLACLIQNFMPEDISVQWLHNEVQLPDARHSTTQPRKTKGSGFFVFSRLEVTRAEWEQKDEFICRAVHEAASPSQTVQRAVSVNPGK

B1: 8D6 Fab (Fab, V domains shown)
VH: QVQLQQSGAELAKPGASVMLSCKASGYTFNGYWMHWVKQRPGQDLEWIGYINPTTGHTEYNQKFKDKATLTADESSNTAYIELSSLTSDDSAVYYCARQEYRHSWFAYWGQGTLVTVSA
VL: DIVLTQSPASLAVSLGQRATISCKASQSVDYDGDTYMNWYHQKPGQPPKLLIYAASNLDSGIPARFSGSGSGTDFTLNIHPVEEEDAATYYCQQTNEDPWTFGGGTKLEIK
In test [1], B1 displayed a dissociation constant Kd of 0.06 nM, a koff of 6e-05 s⁻¹ and a kon of 1e+06 M⁻¹ s⁻¹. Further, in test [2], the stoichiometry N came to 2.

The values above are taken from paper PMC6070508.
